Assay: yeast display, Sf9 membrane polyspecificity reagent, FACS + sequencing; frameworks hold sequencing errors
In short: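 Nanobodies from a synthetic yeast display library (Saccharomyces cerevisiae BJ5465), induced 36–48 hours with galactose, were stained 1 hour at 4 °C with 10% biotinylated, detergent-solubilized Sf9 membrane reagent, enriched on streptavidin microbeads, then FACS-sorted. Anti-HA (expression) and streptavidin (reagent binding) fluorescence set low and high (top ~1%) gates. Polyreactivity labels come from the gate of origin. Genes were colony-PCR amplified, MiSeq 2 × 250 sequenced and filtered by CDR length.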

Sequence: QVQLVESGGGLVQAGGSLRLSCAASGSTFYRNAMGWYRQAPGKERELVAAISRDGSTYYADSVKGRFTISRDNAKNTVYLQMNSLKPEDTAVYSCAKAGVTNGVVVDSVYAYDYWGQGTQVTVSS
- polyreactivity (PSR sort gate): low polyreactivity

Sequence: QVQLVESGGGLVQAGGSLRLSCAASGNTFRRYAMGWYRQAPGKEREFVAAISSSGGRTYYADSVKGRFTISRDNAKNTVYLQMNSLKPEDTAVYYCNAVSYWVRGEMDYWGQGTQVTVSS
- polyreactivity (PSR sort gate): high polyreactivity

Sequence: QVQLVESGGGLVQAGGSLRLSCAASGSTFLYNTMGWYRQAPGKERELVATITSRGDRTYYADSVKGRFTISRDIPKNNVYLQMNSLKPEDTAVYYCNAYGGNYPQSYRYYYWGQGTQVTVSS
- polyreactivity (PSR sort gate): low polyreactivity

Sequence: QVQLVESGGGLVQAGGSLRLSCAASGRTFYWNAMGWSIQAPGKERELVASISWSGGRTYYADSVKGRFTISRDNAKNTVYLQMISLKPEDTAVYYCARRYSGTPSTFYYWGQGTLVTVSS
- polyreactivity (PSR sort gate): high polyreactivity

Sequence: QVQLVESGGGLVQAGGSLRLSCAASGRTFGRNGMGWYRQAPGKERELVAAISIGDSTTYADSVKGRFTISRDNAKNTVYLQMNSLKPEDTAVYYCAAEIERYPVWEYRGKYDYWGQGTQVTVSS
- polyreactivity (PSR sort gate): low polyreactivity

Sequence: QVQLVESGGGLVQAGGSLRLSCAASGSTFQIYAMGWYRQAPGKETELVAAITSSSSTNYADSVKGRFTISRDNAKNTVYLQMNSLKPEDTAVYYCAADVSWRSNWYDYWGQGTQGTVSS
- polyreactivity (PSR sort gate): low polyreactivity

Sequence: QVQLVESGGVLVQAGGSLRLSCAASGSIFYSYAMGWYRQAPGKDRELVAAITRSGGSTYYADSVKGRFTISRENAKNTVYVQMHSLKPEDTAGYYCNARGKGDYYWGQGTQVTVSS
- polyreactivity (PSR sort gate): high polyreactivity

Sequence: QVQLVESGGGLVQAGGSLRLSCAASGRIFVGNAKGWYRQAPRKERELVAAIDESGGSTYYADSVKGRFTISRDNAKTTVYLQMNSLKPEDTAGYYCNAVWFWLRYYKYEYWGQGTQVTVSS
- polyreactivity (PSR sort gate): high polyreactivity

Sequence: QVQLVESGGGLVQAGGSLRLSCAASGRTFVLNAMGWYRPAPGKERELVAAITLGGGSTYADSVKGRFTISRDNAKNTVYLQMNSLKPEDTAVYYCAADFHYPAFEYWGQGTQVTVSS
- polyreactivity (PSR sort gate): low polyreactivity

Sequence: QVQLVESGGGLVQAGGSLRLSCAASGSIFRLNALGWYRQAPGKERELVAAITWSDSSTYYADSVKGRFTISRDNAKNTVYLQMNSLKQEDTAVYYCAADPQSYKYDYWGQGTQVTVSS
- polyreactivity (PSR sort gate): low polyreactivity

Sequence: QVQLVESGGGLDQAGGSLRLSSAASGRIFSKSAMGLYRQAPGKETELVAAMTSGGRTYYADSVKGRFTISRDIAKNTVYLQMNSLKPEDTAVYYCAARYVQVVRKFGYWVQGTQVTVSS
- polyreactivity (PSR sort gate): high polyreactivity

Sequence: QVQLVESGGGLVQAGGRLRLSCAASGSIFDIYAMGLYRQAPGKERELVASIRRRGGSTYYADSVKGRFTISRDNAKNTVYLQMNSLKPEDTAVYYCNARRVWLRTTGTNWPERGYWGQGTQVTVSS
- polyreactivity (PSR sort gate): high polyreactivity

Sequence: QVQLVESGGGLVQAGGRLRLSCAASGRTFYWYAMGWYRQAPGKETELVAAISSGGSTYYADSVKGRFTISRDNAKNTVYLQMNSLKPEDTAVYYCAAVTPSGAHRSAYHPISDYWGQGTQVTVSS
- polyreactivity (PSR sort gate): low polyreactivity

Sequence: QVQLVESGGGLVQAGGSLRLSCAASGYTFFVYAMGWYRQAPGKERELVAAIDLNGGSTSYADSVKGRFTISRDNAKNTVYLQMNSLKPEDTAVYYCAAYSWVGYDYDYWGQGTQVTVSS
- polyreactivity (PSR sort gate): low polyreactivity

Sequence: QVQLVESGGGLVQAGGSLRLSCAASGRILWGYAMGWYRQATGKERELVATITRGGSTNYADSVKGRFTISRDNAKNTFYLKMNRVKPEDTAFYDCAAGELYIVNYTYYFEMDYWGEGTQVTVSS
- polyreactivity (PSR sort gate): high polyreactivity

Sequence: QVQLVESGGGLVQAGGSLRLICAASGSIFSLYAMGWYRQAPGKQREFVASISRSGGITYYADSVKGRFTISRDNEKNTVYLQMISLKPEDTAVYYCAAVGWVSYRRYDYWGQGTQVTVSS
- polyreactivity (PSR sort gate): high polyreactivity

Sequence: QVQLVESGGGLVQAGGSLRLSCAASGRNPMGWYRQAPGKDRELVASISRTGGSTYYADSVKGRFTISRDNAKNTDYLQMNSLKPEDTAVYYCNYFRRPPMYYWGQGTQVTVSS
- polyreactivity (PSR sort gate): high polyreactivity

Sequence: QVQLVESGGGLVQAGGSLRLICAASGRTFRGYAMGWYRQAPGNERELVAAITKSGGSTYYADSVKGRFTISRDNEKNTVYFQMNSLKPEDTAVYYCAKLRSSRDYDYWGQGTQVTVSS
- polyreactivity (PSR sort gate): high polyreactivity

Sequence: QVQLEESGGGLVQAGGSLLLSCAASGLIFYHNAMGWYIQAPGKERELVAAITASGGSTYYADSVKGRFTISRDNANNTVYLQIISLKTEDTAVYYCAADGPLDSDLDYWRQGTQVTVSS
- polyreactivity (PSR sort gate): low polyreactivity

Sequence: QVQLVESGGGLVQAGGSLRLSCAASGRIFGPYVMGWYIQAPGKERELVAAISTSGTSTYYADSVKGRFTISRDNANNTVYLQMNSLKPEDTAVFYFAKRSGARHRLMDYWGQGTQVTVSS
- polyreactivity (PSR sort gate): low polyreactivity

Sequence: QVQLVESGGGLVPAGGSLRLSCASSGRTFYPYAMGRYRQAPGKERELVAAITTSGGRTYYADSVKGRFTISRDNAKNTVYLQMNSLKPEDTGVYYCAKVYREGEGKFDYWGQGTQVTVSS
- polyreactivity (PSR sort gate): high polyreactivity

Sequence: QVQLVESGGGLVQAGGSLRLSCAASGITFNRYAMGWYRQAPGKERELVAGISRGVSTYYADSVKGRFTISRDNAKNTVYLQMKSLKPEDTAVYYCAAKPVVRYVSFGYDYWGQGTQVTVSS
- polyreactivity (PSR sort gate): high polyreactivity

Sequence: QVQLVESGGGLVQAGGSLRLSCAASGRIFGVNAMGWYRPAPGKERELVAHIRSSGASTYYADSVKGRFTISRDNAKNTVYLQMNSLKPEDTAVYYCARDYFVDGPGYDYWGQGTQVTVSS
- polyreactivity (PSR sort gate): low polyreactivity

Sequence: QVQLVESGGGLVQAGGSLRLRCAASGSIFGGNAMGWYRQAPGKEREMVATITDRGSSTYYADSVKGRFTISRDNAKNTGYLQMNSLKPEDTAVYYCATAFPDVPEHDYWGQGTQVTVSS
- polyreactivity (PSR sort gate): low polyreactivity

Sequence: QVQLVESGGGLVQAGGSLRLICAASGLTFPTYAMAWYRQAPGKERELVAAISRIGGRTYYADSVKGRFTISRDNAKNTVYLQMNSLKPEETAVYYCAADGIKGGVEYDYWGQGTQVTVSS
- polyreactivity (PSR sort gate): high polyreactivity

Sequence: QVQLVESGGGLVQAGGSLRLSCAASGSTFILKAMGWYRQAPGKERELVATISSSDTSPYYADSVKGRFTISRDTAKNTVYLQMNSLKPEDTAVYYCNADYYTTSYLQRVYHYGVDYDYWGQGTQVTVSS
- polyreactivity (PSR sort gate): low polyreactivity

Sequence: QVQLVESGRGLVQAGGSLRLSCAASGGTFSPYAMGWYSQGPGKDRELVASITGSGGSTYYADSVKGRFTISRGNATTTVNLQMTSLNPEDTAVYYCAAQGYWTYWPYLLRLYDYWGQGTQVTVSS
- polyreactivity (PSR sort gate): low polyreactivity

Sequence: QVQLVESAGGIVQAGGSLRLSFAASGSTFTRYAMGWYRPAPGKERELVAAIDGGGGSTSYADSVKGRFTISRDHAKNTVYLQMNSLKPEDTAVYYCAAPLDTSSRIFDYWGHGTQVTVSS
- polyreactivity (PSR sort gate): low polyreactivity

Sequence: QVQLVESGGGLVQAGGSLRLSCAASGFIFSRNAMGWYRQAPGKERELVAAISSTGGITYYADSVKGRFSISRDNAKNTVYLQMNSLKPEDTAVYYCAACFYGYARHTWYNYWGQGTQVTVSS
- polyreactivity (PSR sort gate): high polyreactivity

Sequence: QVQLVESGGGLVQAGGSLRLSCAASGRTFEGNAMGWYRQAPGKESELVAAITSGGRTNYADSVKGRFTISRDNAKNTVYLQMNCLKPEDPAVYYCAVETRDRSNYFPGQAYDYWGQGTQVTVSS
- polyreactivity (PSR sort gate): low polyreactivity

Sequence: QVQLVESGGGLVQAGGSLRLSCAASGLNFGVNAMGLYRQAPGKERELVAAISRSGGSTYYADSVKGRFTISRDNAKNSVYLQMNSLKPEDTAVYYCAAAAWDPKGSRYDYWGHGTQVTVSS
- polyreactivity (PSR sort gate): low polyreactivity

Sequence: QVQLVESGGGLVQAGGSLRLSCAASGIIFSGYAKGWSRQAPGKERELVAAISYSGASTYYADSVKGRFTISRDNAKNSVYLLMNSLKPEDTAVYFCAADRRYGRYWNGWSYYYWGQGTQVTVSS
- polyreactivity (PSR sort gate): high polyreactivity

Sequence: QVQLVESGGGLVHAGGSLSLSCAASGPIFGSYGMGWYRQAPGKERELVAAISYSGGRTFYADSVKGRFTISRDNAKNNVYLQMNSLKPEDTAVYYCNKRYIPSYMSHLDYWGQGTQVTVSS
- polyreactivity (PSR sort gate): high polyreactivity

Sequence: QVQLVESGGGLVQAGGSLRLSCAASGFTFYGNAMGWYRQAPGKERDLVAAITGRAGRTYYADSVKGRFTISRDNSKNTVYLQMNSLKPEDTAVYYCAVQVAQSRTFSTYGYWGQGTQVTVSS
- polyreactivity (PSR sort gate): high polyreactivity

Sequence: QVQLVESGGGLVQAGGSLRISFAASGRTFFGYAMGWYRQAPGKERELVATIDGSDGSTFYADSVKGRFTISRDNAKNTVYLQMNSLKPEDTAVYYCAAENFWQSKEYDYWGQGTQVTVSS
- polyreactivity (PSR sort gate): low polyreactivity

Sequence: QDPLVESGGGLVQAGGSLSLSCAASGRNIPVYAMGWYSQAPGKERELVATISYSGSSTYYADSVKGRFTNSRDNAKNTVYLEMYSLKPEDTAVYYWNADAFGPPGVQYYNWGQGTKVTVSS
- polyreactivity (PSR sort gate): low polyreactivity

Sequence: QVQLVESGGGLVQAGGSLRLSCAASGSTFHYYAMGWYRQAPGKERELVAAISQSGSGTYYADSVKGRFTISRDNAKNTVYLQMNSLKPEDTAVYYCAKESTKIYRVVEMDYWGQGTQVTVSS
- polyreactivity (PSR sort gate): low polyreactivity

Sequence: QVQLVESGGGLVQAGGSLRLTCAASGSTFWFYAMGWYRQAPGKERELVATITIGGRTYADSVKGRYTISRDNAKNTVYLQMNSLKPEDTAVYYCAARRVRLEYVYGRYDYWGQGTQVTVSS
- polyreactivity (PSR sort gate): low polyreactivity

Sequence: QVQLVESGGCLVQAGGSLRLICAASGIILTQNAMGWYRQAPGKERELVAAITESGARTYYADSVKGRFTISRDNAKNTVYLQMNSLKPEDTAVYYCAAHTRTSGHNYWGQGTQVTVSS
- polyreactivity (PSR sort gate): low polyreactivity

Sequence: QVQVVESGGGLVQAGGSLRLICAASGSTSWSYAMGWYRQAPGKERELVAAITRTGSTNYADSVKGRFTISRDNAKNTVYLQMNSLKPEDTAVYYCVYATLRYDYWGQGTQVTVSS
- polyreactivity (PSR sort gate): low polyreactivity

Sequence: QVQLVESGGGLVQAGGSLRLSCAASGFTFERYAMGWYRQAPGKERELVAAIDWRGVNTYYADSVKGRFTISRDNAKNTVYLQMNSLKPEDTAVYYCNARAYGRYYWGQGTQVTVSS
- polyreactivity (PSR sort gate): high polyreactivity

Sequence: QVQLVETGGGLVQAGGSLRLSCADSGSTFPGNGMVWSRQAPGKERELVAGISSGGRTYYADSVKGRVTISRDNAKNTVYLQLNRLKPEDTAVYYCATEGDYFAKYDRMDYWGQGTQVTVSS
- polyreactivity (PSR sort gate): low polyreactivity

Sequence: QVQLVESGGGLVQAGGSLRLTCAASGSTFTAYAMGWYRQAPGKERELVADISDSGGSTYYADSVKGRFTISRDNAKNTVYLQMNSLIPEDTAVYYCAVDVRAYVVSKFDSWGQGTQVTVSS
- polyreactivity (PSR sort gate): low polyreactivity

Source: the nanobody polyreactivity screen of Harvey et al. (2022)
